Earlier results, collected in PMC8146069.

Columns and labels:
[1] = system: Nterm16; experiment: kinetics
[2] = target: His57 (UniProt position 406, VLTAAHCLLYP); experiment: kinetics
[3] = target: r-hirudin (recombinant hirudin, type 1 or type 2) (UniProt P01050); experiment: pH profile of hirudin binding to thrombin (the measured quantity and the assay are not stated in this article)
[4] = 25 °C (as for the free enzyme; inferred from the preceding sentence), µ = 0.1 (inferred from the preceding sentence), thrombin with small peptide substrate bound
[5] = 25.0 ± 0.1 °C, thrombin reacting with NPMP
[6] = 25.0 ± 0.1 °C, thrombin reacting with PPACK (2.2 × 10^−9 M, [I] << Ki)
[7] = 25.0 ± 0.1 °C, thrombin reacting with paraoxon

Chain of r-hirudin (recombinant hirudin, type 1 or type 2) (P01050 whole entry): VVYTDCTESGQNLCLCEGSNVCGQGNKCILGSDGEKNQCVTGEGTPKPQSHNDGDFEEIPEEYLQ

Row | Substance | pKa [1, 4] | pKa ([1]; 25 °C, µ = 0.1, free thrombin) | pKa [1, 5] | pKa [1, 6] | pKa [1, 7] | pKa [2, 4] | pKa ([2]; 25 °C, µ = 0.1, free thrombin) | pKa [2, 5] | pKa [2, 6] | pKa [2, 7] | pKa ([2]; thrombin binding r-hirudin) | pKa, His57 of thrombin [3] [pH units]
1 | alpha-thrombin (Homo sapiens) | 8.95 ± 0.41 | 8.4 ± 0.4 | 8.6 ± 0.2 | 8.8 ± 0.3 | 9.3 ± 0.3 | 6.16 ± 0.25 | 6.7 ± 0.3 | 8.0 ± 0.1 | 7.3 ± 0.2 | 7.8 ± 0.2 | 7.1 | 
2 | alpha-thrombin |  |  |  |  |  |  |  |  |  |  |  | 7.1
